Source: US20190352426A1, “PLAZOMICIN ANTIBODIES AND METHODS OF USE” (Achaogen, Inc., priority 2016, published 2019)
Changes are numbered by the printed parent chain.

B1: MC330: murine monoclonal anti-plazomicin antibody; heavy chain variable SEQ ID NO 34, light chain variable SEQ ID NO 38 (antibody, listed as Mus musculus, V domains shown)
VH: SDVQLQESGPGLVTPSQSLSLTCTVTGYSITSAYAWNWIRQFPGNKLEWLGYINSSGSTSYHPSLKGRISITRDTSKNQFFLQLNSVTTEDTATYYCTHTTSYFDYWGQGTTLTVSS
VL: SIVMTQTPKFLIVSAGDRVTITCKASQSVSNDVAWYQQKPGQSPKLLISYASNRYTGVPDRFTGSGYGTDFTFAITTVQAEDLAVYFCQQDYSSPYTFGGGTKVEIK
B2: MC337: murine monoclonal anti-plazomicin antibody; heavy chain variable SEQ ID NO 82, light chain variable SEQ ID NO 86 (antibody, listed as Mus musculus, V domains shown)
VH: QVQLQQPGPELVKPGASVKMSCKASGYTFTSYVIHWVKQKPGQGLEWIGYINPFNDGTKYNEKFKGKATLTSDKSSSTAYMELSSLTSEDSAVYYCEGVGSSGSDYWGQGTTLTVSS
VL: B1 VL with S1D, I12L, S30R, A74T, T76S, V85I, V104L
B3: MC336: murine monoclonal anti-plazomicin antibody; heavy chain variable SEQ ID NO 74, light chain variable SEQ ID NO 78 (antibody, listed as Mus musculus, V domains shown)
VH: QMQLQESGPGLVKPSQSLSLTCTVTGDSITSDYAWNWIRQFPGNKLEWMGYISYSGSTSYNPSLKSRISISRDTSKNQFFLQLNSVTIEDTATYYCTGNSYTMDYWGQGTSVTVSS
VL: B1 VL with I12L, K45N, A74T, T76S, S93I, Y96W, V104L
B4: MC339: murine monoclonal anti-plazomicin antibody; heavy chain variable SEQ ID NO 90, light chain variable SEQ ID NO 94 (antibody, listed as Mus musculus, V domains shown)
VH: QVQLVQSGPELVKPGASVKVSCKASGFSFTDYNMYWVKQSHGKSLEWIGYIDPYNGGTSYNQKFKGKATLTFDKSSSTAFMHLNSLTSEDSAVYYCASAGNYDDYWGQGTTLTVSS
VL: B1 VL with S1D, I12L, K45T, S49Y, A74T, T76S, S93T, V104L
B5: MC329: murine monoclonal anti-plazomicin antibody from hybridoma MC329; heavy chain variable SEQ ID NO 22, light chain SEQ ID NO 26, 30 (antibody, listed as Mus musculus, V domains shown)
VH: SDVQLQESGPGLVKPSQSLSLTCTVTGYSITTNYAWNWIRQFPGHKLEWMGYITSSGRTSYNPPLKSRISITRDTSRSQFFLRLNSVTTEDTATYFCTHTTAYLDYWGQGTTLTVSS
VL 1: B1 VL with I12L, T72A, A74T, T76N, V85F, V104L
VL 2: DIKMTQSPSSMYASLGERVTITCKASQDIKSYLSWYQQIPWKSPKTLIYYATSLADGVPSRFSGSGSGQDYSLTISSLESDDTATYYCLQHGESPLTFGAGTKLELK
B6: MC331: murine monoclonal anti-plazomicin antibody; heavy chain variable SEQ ID NO 42, light chain variable SEQ ID NO 46 (antibody, listed as Mus musculus, V domains shown)
VH: QVQLQQSGAELAKPGASVKMSCKASGNTFTSYWMHWIKQRPGQGLEWIGYIDPSTGYTEYNQKFKDRATLTADKSSNTAYMQLNSLTSEDSAVYYCTKSGKWDDYWGQGTTLTVSS
VL: B1 VL with I12L, S30T, S49C, A74T, T76S, Y92H, S93T, Y96F, V104L
B7: MC335: murine monoclonal anti-plazomicin antibody; heavy chain variable SEQ ID NO 66, light chain variable SEQ ID NO 70 (antibody, listed as Mus musculus, V domains shown)
VH: B3 VH with Q1A, M2G, Q5K, D27S, Y54Q, S71T, I88T
VL: B1 VL with S1D, T7S, I12L, A74T, Y96W, V104L
B8: MC340: murine monoclonal anti-plazomicin antibody; heavy chain variable SEQ ID NO 98, light chain variable SEQ ID NO 102 (antibody, listed as Mus musculus, V domains shown)
VH: QVTLKESGGGLVQPGGSMKISCVVSGLTFRNYWMSWVRQSPEKGLEWVAEIRLKSDNYATHYAESVKGKFTISRDDSKSRLYLQMNSLRAEDTGIYYCTVYGKDFDYWGQGTTLTVSS
VL: B1 VL with S1D, I2V, I12L, A74T, T76S, Y96W, V104L
B9: MC334: murine monoclonal anti-plazomicin antibody; heavy chain variable SEQ ID NO 58, light chain variable SEQ ID NO 62 (antibody, listed as Mus musculus, V domains shown)
VH: QVQLQQSGAELMKPGASVKISCKATGYKFSRYWIEWVKESPGHGLEWIGEIFPGSDSTDYNEKFKGKATLTADSSSNTAYMQLSSLTSEDSAVYYCARDGGGLDEFAYWGQGTPVIVSA
VL: DVVVTQIPLSLSVSFGDQVSISCRSSQSLTNSYGYTYLSWYLHKPGQSPQLLIYGISNRFSGVPDRFSGSGSGTDFTLKISTIKPEDLGMYYCLQGTHQPYTFGGGTKLEIR
B10: MC332: murine monoclonal anti-plazomicin antibody; heavy chain variable SEQ ID NO 50, light chain variable SEQ ID NO 54 (antibody, listed as Mus musculus, V domains shown)
VH: B9 VH
VL: B9 VL with I7N

Test: competitive ELISA on BSA-bromo-plazomicin coated plates, free gentamicin
Format: binding
Details: free gentamicin 0.013-270 μg/ml incubated with antibody at 0.05 nM, then added to BSA-bromo-plazomicin-coated ELISA plates
Description: (§1) The purified antibodies were then analyzed for binding to BSA-plazomicin by ELISA (the tested concentrations of antibodies ranged from 0.0001 nM to 100 nM). (FIG. 1A) and competitive ELISA (FIG. 1B) on BSA-bromo-plazomicin coated ELISA plates. For competitive ELISAs, free aminoglycosides (plazomicin, gentamicin, amikacin, and sisomicin) at concentrations; 270 μg/ml, 90 μg/ml 30 μg/ml, 10 μg/ml, 3.3 μg/ml, 1.1 μg/ml, 0.4 μg/ml, 0.12 μg/ml, 0.04 μg/ml and 0.013 μg/ml were incubated with one of 10 purified monoclonal antibodies derived from the cell cultures described above; MC329, MC330, MC331, MC332, MC334, […], […], MC337, MC339, MC340 at 0.05 nM concentration (FIG. 1B). The antibody/aminoglycoside solutions were then added to BSA-bromo-plazomicin-coated ELISA plates. Plates were washed to remove unbound antibody, and IC50 values (μg/mL) were determined for each aminoglycoside and are shown below in Table 5.

| Molecule | Antibiotic IC50 Values for Aminoglycosides: Gentamicin |
| --- | --- |
| B1 | 92.0 µg/mL |
| B2 | 107.6 µg/mL |
| B3 | ~106.1 µg/mL |
| B4 | ~101.7 µg/mL |
| B5 | 107.0 µg/mL |
| B6 | 214.4 µg/mL |

Test: competitive ELISA on BSA-bromo-plazomicin coated plates, free sisomicin
Format: binding
Details: free sisomicin 0.013-270 μg/ml incubated with antibody at 0.05 nM, then added to BSA-bromo-plazomicin-coated ELISA plates
Description: as §1

| Molecule | Antibiotic IC50 Values for Aminoglycosides: Sisomicin |
| --- | --- |
| B7 | 69.0 µg/mL |
| B1 | 9.9 µg/mL |
| B2 | 16.1 µg/mL |
| B3 | 37.6 µg/mL |
| B4 | 24.4 µg/mL |
| B5 | 83.0 µg/mL |
| B6 | 83.0 µg/mL |
| B8 | 153 µg/mL |

Test: competitive ELISA on BSA-bromo-plazomicin coated plates, free plazomicin
Format: binding
Details: free plazomicin 0.013-270 μg/ml incubated with antibody at 0.05 nM, then added to BSA-bromo-plazomicin-coated ELISA plates
Description: as §1

| Molecule | Antibiotic IC50 Values for Aminoglycosides: Plazomicin |
| --- | --- |
| B9 | 0.72 µg/mL |
| B10 | 0.94 µg/mL |
| B7 | 0.59 µg/mL |
| B1 | 0.02 µg/mL |
| B2 | 0.06 µg/mL |
| B3 | 0.25 µg/mL |
| B4 | 0.12 µg/mL |
| B5 | 0.43 µg/mL |
| B6 | 0.43 µg/mL |
| B8 | 19.0 µg/mL |
